{
  "source": "paper PMC12338573",
  "about": "(bioRxiv, 2025)",
  "proteins": {"B1": {"name": "hFcµ-tFcµ-chi3 with Cys414 mutated (domain or fragment)", "chain": "TAIRVFAIPPSFASIFLTKSTKLTCLVTDLTTYDSVTISWTRQNGEAVKTHTNISESHPNATFSAVGEASIAEDDWNSGERFTCTVTHTDLPSPLKQTISRPKGVALHRPDVYLLPPAREQLNLRESATITCLVTGFSPADVFVQWMQRGQPLSPEKYVTSAPMPEPQAPGRYFAHSILTVSEEEWNTGETYTCVVAHEALPNRVTERTVDRTSNQPNLVNLSLNVPQRCMAQ"}},
  "molecular_target": "the molecule itself",
  "assay": "SEC-MALS",
  "data": [
    {"protein": "B1", "values": [
      {"measurement": "pentamer:monomer ratio", "result": 14, "unit": "%"}
    ]}
  ]
}
